The labels stand for the following.
B1: recombinant human syndecan-2 (protein)
chain: ESRAELTSDKDMYLDNSSIEEASGVYPIDDDDYASASGSGADEDVESPELTTSRPLPKILLTSAAPKVETTTLNIQNKIPAQTKSPEETDKEKVHLSDSERKMDPAEEDTNVYTEKHSDSLFKRTE
B2: recombinant human syndecan-4 (protein)
chain: ESIRETEVIDPQDLLEGRYFSGALPDDEDVVGPGQESDDFELSGSGDLDDLEDSMIGPEVVHPLVPLDNHIPERAGSGSQVPTEPKKLEENEVIPKRISPVEESEDVSNKVSMSSTVQGSNIFERTE
B3: recombinant human syndecan-1 (protein)
chain: QIVATNLPPEDQDGSGDDSDNFSGSGAGALQDITLSQQTPSTWKDTQLLTAIPTSPEPTGLEATAASTSTLPAGEGPKEGEAVVLPEVEPGLTAREQEATPRPRETTQLPTTHLASTTTATTAQEPATSHPHRDMQPGHHETSTPAGPSQADLHTPHTEDGGPSATERAAEDGASSQLPAAEGSGEQDFTFETSGENTAVVAVEPDRRNQSPVDQGATGASQGLLDRKEVLG

The first assay has as its target T1, laminin peptide LAMA4_(1521–1543) (Homo sapiens (Human), UniProt Q16363).
T1 chain: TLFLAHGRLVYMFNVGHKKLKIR
Kind of assay: ELISA. (In general: In an ELISA, binding on a coated surface is turned into a signal by an enzyme label.)
Consider B1, for which the binding result is listed as “binds”.
Same read-out and setting: the entry for B2 is “binds”; for B3 it is “binds”.

Another assay concerns the target T2, laminin peptide LAMA3_(3043–3067) (Homo sapiens (Human), UniProt Q16787).
T2 chain: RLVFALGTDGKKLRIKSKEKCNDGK
Put plainly: ELISA.
On to B1, for which the binding result is on record as “binds”.
Still for that read-out and setting: the entry for B2 is “binds”; for B3 it is “binds”.

The next assay concerns the target T3, laminin peptide LAMA5_(3417–3436) (Homo sapiens (Human), UniProt O15230).
T3 chain: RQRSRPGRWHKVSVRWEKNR
Kind of assay: ELISA.
Consider B1, for which the binding result was “binds”.
The same measure, in the same setting: in the case of B2 it was “binds”.
On the same count and under the same terms, the entry for B3 is “binds”.

The next assay has as its target T4, laminin peptide LAMA4_(1408–1434) (Homo sapiens (Human), UniProt Q16363).
T4 chain: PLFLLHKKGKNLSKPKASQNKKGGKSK
Put plainly: ELISA.
With B1, the binding result was “binds”.
The same measure, in the same setting: in the case of B2 it was “binds”.
On the same count and under the same terms, the entry for B3 is “binds”.

In another assay the target is T5, laminin peptide LAMA5_(3539–3550) (Homo sapiens (Human), UniProt O15230).
T5 chain: TLPDVGLELEVR
Put plainly: ELISA.
Regarding B1, the binding result is “no binding”.
Same read-out and setting: the entry for B2 is “no binding”; for B3 it is “no binding”.

The target of another assay is T6, laminin peptide LAMA5_(3300–3330) (Homo sapiens (Human), UniProt O15230).
T6 chain: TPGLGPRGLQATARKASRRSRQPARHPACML
Kind of assay: ELISA.
With B1, the binding result is listed as “binds”.
On the same count and under the same terms, the entry for B2 is “binds”; for B3 it is “binds”.

For the origin of these results see publication PMC5986797 (2018).
